We go through one substance from article PMC4397081.

The assay deals with Type 2 (MM2) sCJD proteinase K-resistant PrP^Sc aggregates (human). Nature of the assay: sedimentation velocity in sucrose gradient (ultracentrifugation).

Substance “Type 2 (MM2) sCJD proteinase K-resistant PrP^Sc aggregates (complex)” came in with a stoichiometry N greater than 600 monomers.

As usually defined, the stoichiometry N is the number of molecules, sites or subunits per partner or assembly.
